# Tested on: MS2 coat protein
# Assay: apparent KD of MS2 coat protein; designed switch direction (-1 OFF switch, 1 ON switch): -1; higher = weaker reporter binding
# How it was run: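 Transcription of designed RNA switches on Illumina chips was done by stalled E. coli RNA polymerase. SNAP-549-labelled MS2 coat protein was then titrated in doubling steps from 0.7 or 1.5 nM to 3 µM, with steps of 0.8–1.5 h at the lowest and 10–20 min at the highest concentration. The per-design median over clusters of curve-fitted normalised fluorescence is reported as apparent KD.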
# [1] = Eterna round: R95, input ligand: FMN 200 uM
# [2] = Eterna round: R95, input ligand: microRNA oligo, concentration not stated
# [3] = Eterna round: R95, input ligand: none
# [4] = input ligand: microRNA oligo, concentration not stated
Sequence,apparent KD of MS2 coat protein [1],apparent KD of MS2 coat protein [2],apparent KD of MS2 coat protein [3],apparent KD of MS2 coat protein (input ligand: FMN 200 uM),apparent KD of MS2 coat protein (input ligand: none),apparent KD of MS2 coat protein [4]
"ACAAGUUUUUUGUUUUUUAACAUGAGGAUCACCCAUGUAUUUUUAGAGGAUGUGGGAAUAAGAGCUCUUUGUCUUAU [JR_SV3TOV1_Sub097] (puzzle: Sensor v3, turn-off variant 1)",38.6 nM,90.3 nM,41.2 nM,–,–,–
"CGGUAACAUGAGGAUCACCCAUGUGAGGAUAUCGUACGUUCGUCGAUAGACGAUCGUACGAGAAGGCAUGACCG [Mat - Exclusion 1 - Eli Mod - D33] (Eterna round: R97, puzzle: Exclusion 1)",–,–,–,21.4 nM,43.9 nM,–
AUGAGACAUGAGGAUCACCCAUGUGAGGAUAUGUAUGGAUGUUGGAAAGAAUGAGAGAACAGAAGGCACGUAGA [JR_Exclu1_Sub063] (puzzle: Exclusion 1),93.1 nM,104 nM,149 nM,–,–,–
"CAGUACUGAGGAUAUACAUGAGGAUCACCCAUGUGUUCCAGCUAGGAAACUAGCAGAAGUAGAAGGCAGUACUG [salish99_ex3_r3_067] (Eterna round: R96, puzzle: Exclusion 3)",–,–,–,311 nM,23.3 nM,17 nM
"GACCUUCCUGUAAGGAUAUCCAUGUAUCAAAGCAUGGAGAAGGUACAUGAGGAUCACCCAUGUCACCCGCGUUA (Eterna round: R97, puzzle: Brourd's mod of Exclusion 4)",–,–,–,17.7 nM,11.7 nM,–
UGGUAACAUGAGGAUCACCCAUGUCAGGAUAUCAGGAAGAAGAGAGGAGAGGAGAAGAUGAGAAGGGACUAUAU [Excluse me! 11 - Jieux - Exclusion 1] (puzzle: Exclusion 1),21.6 nM,19.8 nM,26.2 nM,–,–,–
"GUAAAUCAUGUAGGAUAUGCGUGGCGAAGCUAUGCAGAAGGACAUGAGGAUCACCCAUGUGCUUGCGUCCGCGUACGGAUGCAA [Mat - Exclusion NG 1 - Mod of JL - D70] (Eterna round: R96, puzzle: Exclusion NG 1)",–,–,–,292 nM,237 nM,124 nM
"UUAUUAUAUGUAGGAUAUGCAUAUUAUUAUUAUGCAGAAGGACAUGAGGAUCACCCAUGUAUAUUAUUGUUAUAUAUUAUAUAU [Title] (Eterna round: R96, puzzle: Exclusion NG 1)",–,–,–,–,–,21 nM
AAGUAUAGAGGAUAUAGUGAGUACUACAUGAGGAUCACCCAUGUUCUUCAAAGCGUAUUUCUAGAAGGCUAAUGAA [EX-5 Malc#14] (puzzle: Exclusion 5),–,43.3 nM,–,–,–,–
"AAUGAGCGAGGAUAUGCAACUGUAUGACCUACGUGUGCCAGACAUGAGGAUCACCCAUGUAGAAGGUGCUUUCC [Israte] (Eterna round: R96, puzzle: Exclusion 2)",–,–,–,59.9 nM,57 nM,45.3 nM
"ACUCUUCUUGUUAGGAUAUGCAUCGGGCUUCCGCAGCAGAAGGAACAUGAGGAUCACCCAUGUCAAAUAAAAUC (Eterna round: R97, puzzle: Brourd's mod of Exclusion 4)",–,–,–,141 nM,20.8 nM,–
"CCAGGCGUCUUUGCUCGUCUUAUUUGGAGAUGACUGUUAACAUGAGGAUCACCCAUGUGUGUGGGAGCGUUGCAGUC [JR_SV3TOV2_Sub021] (puzzle: Sensor v3, turn-off variant 2)",580 nM,431 nM,885 nM,–,–,–
"GACCCGUCAGGAUAUACAUGAGGAUCACCCAUGUAAUCAGCGAUAGGACAAGGCUCACGUAGAAGGGACAGGGU [Eternabot (L1) Solution 33] (Eterna round: R97, puzzle: Exclusion 3)",–,–,–,44.6 nM,22.8 nM,–
"UAAGUUUACCGAGGAUAUGGUCCAUAAUUUUUACCAGAAGGCGGACUCAACAUGAGGAUCACCCAUGUAUAAAGGGUAUUUGGU [JR_ExcNG1_Sub046] (Eterna round: R96, puzzle: Exclusion NG 1)",–,–,–,51.2 nM,35.8 nM,27.4 nM
"CAUCCAGCUUCCCUUCAAAACAUGAGGAUCACCCAUGUUUUUGUUUUUACAAGCUUUUUGCUUUUUGCUCGUCUUGU [A Humble Attempt... Again] (puzzle: Sensor v3, turn-off variant 1)",20.5 nM,16 nM,21.5 nM,–,–,–
"AAUAAUUUUUUUUUUUUACAAGCUUUUUGCUCGUCUUAUACAUGAGGAUCACCCAUGUGGGUGAAAGAUAGAUUGUC [JMF's solution 1] (puzzle: Sensor v3, turn-off variant 2)",30.6 nM,18.2 nM,44.8 nM,–,–,–
"AAAUUCAGAGGAUAUGCGCAUAGAUAAGACUUUUUUUUUUAACAUGAGGAUCACCCAUGUAGAAGGCUGUAACA [Ex2 #50] (Eterna round: R97, puzzle: Exclusion 2)",–,–,–,25.4 nM,21.2 nM,–

Sequence,apparent KD of MS2 coat protein [1],apparent KD of MS2 coat protein [2],apparent KD of MS2 coat protein [3],apparent KD of MS2 coat protein (input ligand: FMN 200 uM),apparent KD of MS2 coat protein (input ligand: none),apparent KD of MS2 coat protein [4]
"UAAUAACAUGUAGGAUAUGCGUGGCGAAGCUAUGCAGAAGGACAUGAGGAUCACCCAUGUUAAAGCGUCUGCGUACAGAUGCGA [Mat - Exclusion NG 1 - Mod of JL - D97] (Eterna round: R96, puzzle: Exclusion NG 1)",–,–,–,188 nM,31.1 nM,30.1 nM
"AUCCUCACUUUUUAAGCGAACAUGAGGAUCACCCAUGUACAAGCUUUUUGCUCGGCUUAUAAAGGGUUGGAAACAAC [Alacar Attempt 3] (Eterna round: R97, puzzle: Sensor, turn-off variant 1)",–,–,–,16.8 nM,16 nM,–
CUCGGACAUGAGGAUCACCCAUGUGAGGAUAUGAUGCGAUCGUCGAAAGACGAUAGCAUCAGAAGGCACAAAUG [Fiskers Ex 1 - 25] (puzzle: Exclusion 1),–,73 nM,–,–,–,–
"GAUAUGUAAGGAUAUCGUGCAAGUUUCAAAAGAGGCUUGUGCGAGAAGGUACAUGAGGAUCACCCAUGUAGGUU [Omei Ex4 B14] (Eterna round: R97, puzzle: Exclusion 4)",–,–,–,116 nM,29.6 nM,–
"ACAUGAGGAUCACCCAUGUGAAACCAAUGGCUGACUUUGAGACAGGAUAUUCGUGCAUAUCAAACGAAGAAGGGUCAUUACUGG [Deportation 95 - Jieux - Exclusion NG 3] (Eterna round: R96, puzzle: Exclusion NG 3)",–,–,–,56.8 nM,46.8 nM,41.1 nM
"AUUUAGCAAGCGUGAUCCUACAUGAGGAUCACCCAUGUAGUUCGUCUUAUUUGAAGACAACACAAAAGUGUUGUCUU [Omei Mir OFFv1 B8] (Eterna round: R97, puzzle: Sensor, turn-off variant 1)",–,–,–,355 nM,212 nM,–
ACAAAGGGAGUCAGGAUAUCGGACGUAAGUCAAGACGAGAAGGGACAUGAGGAUCACCCAUGUCAGCGGUGAAA [Exclusion 4 S1] (puzzle: Brourd's mod of Exclusion 4),42.5 nM,18.7 nM,17 nM,–,–,–
GGUCCACAUGAGGAUCACCCAUGUUAGGAUAUCUCCCGCCUCCUCACUGGAGACGGACAGAGAAGGAACAUCAA [Vetibele] (puzzle: Exclusion 1),–,23.7 nM,–,–,–,–
"UAUAUGUCAGGAUAUUAGUAGUAAAUGAAUAAAAUUAUUACUGAGAAGGGACAUGAGGAUCACCCAUGUGUCUC [Mat - Exclusion 4 - Eli Mod - D26] (Eterna round: R97, puzzle: Exclusion 4)",–,–,–,577 nM,175 nM,–
"ACGUAACGAGCUUGAUCCAACAUGAGGAUCACCCAUGUGCUCGUCUUAUAACGUACUGUCACGUUAGUGAUAGUGCG [Sensor v3, turn-off variant 1 (MOD of Eli's v1-13 v.5)] (puzzle: Sensor v3, turn-off variant 1)",971 nM,369 nM,1190 nM,–,–,–
"ACAAGCUUUUUGUUCGUCUUAUAAUAAUAAAUAAAGAUAACAUGAGGAUCACCCAUGUAACAAAGACGGACUCAUGU [Sesor Array 18 - Jieux - Sensor v3, turn-off variant 2] (puzzle: Sensor v3, turn-off variant 2)",18.2 nM,279 nM,16.3 nM,–,–,–
CUCUUGUCAGGAUAUCUAAGCCACCUCCGGGCGGCCGAAUUAGAGAAGGGACAUGAGGAUCACCCAUGUAAAAG [Qumabi] (puzzle: Exclusion 4),30 nM,138 nM,174 nM,–,–,–
"GCAGGCGACUAGGCUCGUCUUAUUUUGAGAAGAUUGAAAACAUGAGGAUCACCCAUGUGUGUGGGAGAGUUGGAGUG [JR_SV3TOV2_Sub012] (puzzle: Sensor v3, turn-off variant 2)",268 nM,346 nM,475 nM,–,–,–
"AAUGAUUGACGAGGAUAUUGUGGUAGAUCACGACGAGAAGGCGUAUGUCACAUGAGGAUCACCCAUGUGAGCUUUGUGGAUAGA [Ex NG1 #74] (Eterna round: R96, puzzle: Exclusion NG 1)",–,–,–,27.1 nM,20.7 nM,16.1 nM
"AGUGUGUGGCAGGAUAUUCUAAUCUUGAGGAGGGAAGAAGGGUCUACAUGAGGAUCACCCAUGUAAGCGGUUGA [Ex6 #41] (Eterna round: R97, puzzle: Exclusion 6)",–,–,–,142 nM,33.6 nM,–
"AUGUUGCGAGGAUAUAUAUGGAGGUUAAAAUUUGAUAUGGAACAUGAGGAUCACCCAUGUAGAAGGUGCAUAAC [JR_Ex2_Sub039] (Eterna round: R97, puzzle: Exclusion 2)",–,–,–,155 nM,57.5 nM,–

# From the supplement of paper PMC9170038
